Laboratory results from the DeepSol protein solubility set.

Assay: soluble on expression in E. coli; label from the status in PepcDB or PDB records

Row | Sequence | soluble on expression in E. coli
1 | MHHHHHHMSWNHQSVEIAVRRTTVPSPNLPPGFDFTDPAIYAERLPVAEFAELRSAAPIWWNGQDPGKGGGFHDGGFWAITKLNDVKEISRHSDVFSSYENGVIPRFKNDIAREDIEVQRFVMLNMDAPHHTRLRKIISRGFTPRAVGRLHDELQERAQKIAAEAAAAGSGDFVEQVSCELPLQAIAGLLGVPQEDRGKLFHWSNEMTGNEDPEYAHIDPKASSAELIGYAMKMAEEKAKNPADDIVTQLIQADIDGEKLSDDEFGFFVVMLAVAGNETTRNSITQGMMAFAEHPDQWELYKKVRPETAADEIVRWATPVTAFQRTALRDYELSGVQIKKGQRVVMFYRSANFDEEVFQDPFTFNILRNPNPHVGFGGTGAHYCIGANLARMTINLIFNAVADHMPDLKPISAPERLRSGWLNGIKHWQVDYTGRCPVAH | soluble
2 | MKVIIFGGSGFLGQQIAKILVQRQHQVISVSRHGKPATLSASWSHQVQWVCSDVTHDTNWQEQVQRADWVIDTVGILFENPRKKKTYQRLILTPVKKISSFLAQQKKPAKFLFISANTVPFPLRKYMDAKLAAEELIHQEVAEAVIFYPSLLVGQERTGTILFSKCIYFFKKIPFLKNLFIGYDPVPVAEMAQEIVHVLEGGNSIYTHRRTR | not soluble
3 | MSLQIMLCAISNIASGNCSEDCKYCTQSAHVKTDIQKYRRKELSQIVLEAKMAKKNEALGFCLVTAGLGLDDEKLEYVCEAAKAVQKEVPNLLLIACNGMASVEQLKELKKAGIFSYNHNLESSKEFFPQICTTHTWESRFQTNLNAKEAGLMLCCGGIYGMGESEEDRLSFRKSLQELQPFSTPINFFIANENLKLQVPRLSADEALKIVRDTKEALPQSVVMVAGGREVVLRERQYEIFQAGAGAIVIGDYLTTKGEEPSQDIIKLKEMGFTFASECHEGHHHHHH | not soluble
4 | MGSDKIHHHHHHMSENIRALSRGLNVLEFLSETGGATRQATVAHFGLSRPTIYRLLGTLEKSGLISLGDDGVYRPTIATRALKEGLTDDVWALWAAEPILLELQKEVVWTSEITTFDAYSCTMLKRDTTHSLNPYHINLLDFDDNHRSMLTSACGLAYLAFCPQQQRAQILEHLGHFGDRTQSDSQRPDSQRGAGAHTRNLINKVISDGYAVEQRNSYPLIAAIAVPIRYDNRVLACLSIVWLPRAVKLQDGITQFLPALKRAQSFIEQKLLDDASIEYDTNFTAKYVHHGQQHELI | not soluble
5 | RRRRPSSSRRLRGRGAAQMACPALGLEALQPLQPEPPPEPAFSEAQKWIEQVTGRSFGDKDFRTGLENGILLCELLNAIKPGLVKKINRLPTPIAGLDNIILFLRGCKELGLKESQLFDPSDLQDTSNRVTVKSLDYSRKLKNVLVTIYWLGKAANSCTSYSGTTLNLKEFEGLLAQMRKDTDDIESPKRSIRDSGYIDCWDSERSDSLSPPRHGRDDSFDSLDSFGSRSRQTPSPDVVLRGSSDGRGSDSESDLPHRKLPDVKKDDMSARRTSHGEPKSAVPFNQYLPNKSNQTAYVPAPLRKKKAEREEYRKSWSTATSPLGGERPFRYGPRTPVSDDAESTSMFDMRCEEEAAVQPHSRARQEQLQLINNQLREEDDKWQDDLARWKSRRRSVSQDLIKKEEERKKMEKLLAGEDGTSERRKSIKTYREIVQEKERRERELHEAYKNARSQEEAEGILQQYIERFTISEAVLERLEMPKILERSHSTEPNLSSFLNDPNPMKYLRQQSLPPPKFTATVETTIARASVLDTSMSAGSGSPSKTVTPKAVPMLTPKPYSQPKNSQDVLKTFKVDGKVSVNGETVHREEEKERECPTVAPAHSLTKSQMFEGVARVHGSPLELKQDNGSIEINIKKPNSVPQELAATTEKTEPNSQEDKNDGGKSRKGNIELASSEPQHFTTTVTRCSPTVAFVEFPSSPQLKNDVSEEKDQKKPENEMSGKVELVLSQKVVKPKSPEPEATLTFPFLDKMPEANQLHLPNLNSQVDSPSSEKSPVTTPQFKFWAWDPEEERRRQEKWQQEQERLLQERYQKEQDKLKEEWEKAQKEVEEEERRYYEEERKIIEDTVVPFTVSSSSADQLSTSSSMTEGSGTMNKIDLGNCQDEKQDRRWKKSFQGDDSDLLLKTRESDRLEEKGSLTEGALAHSGNPVSKGVHEDHQLDTEAGAPHCGTNPQLAQDPSQNQQTSNPTHSSEDVKPKTLPLDKSINHQIESPSERRKKSPREHFQAGPFSPCSPTPPGQSPNRSISGKKLCSSCGLPLGKGAAMIIETLNLYFHIQCFRCGICKGQLGDAVSGTDVRIRNGLLNCNDCYMRSRSAGQPTTL | soluble
6 | MSLTNTTKIVFLGASSASFGLSMFRDLFASPVLAGSTLTLVGRNPETLGRMTELAKLMNARSGAGLIIEQTTDRRAALDGAGFVINATAIDRNRLWKQDFEVPKKHGIRHTLGENGGPGGLFFTLRTLPLVFDFIRDIEELCPTALFLNYSNPESRIILALGRYTKVRHIGLCHGIFMGRDAVAYIMQMPREEIEVWGAGLNHFQCLTEIRHRDTGEDLYPRFRAAEQSFDPDAWRFTRRLYRAFGYWLTCSDDHLGEYLPYGWEAGEKGYDFDQDERWRGEFLTQLNGVLGGTMPIPQWWTEPSGERGAAVIAAMLHNQKRFIESGIVINRGVIPNLPAELAVEVPVTVDAAGVHPVSLGPLPDPIAKLMLMQASVQQLAVEAAVHASKELALQALLIDPVVNSAVAAEKILDELWEINRPYIRKEGHHHHHH | not soluble
7 | MDTLQNMRAFSSVAQAGSFTAAAAVLDTTTANVSRAVSNLEAHLQTRLLNRTTRRIALTEAGKRYLLRCEQILASVEEAEAEASDAHARPAGQLKVHSMPGVGQHYVIDAIARYRRNHPDVAFDLTMTHRVPDLLEEGFDVSIVLASELADSGFVSQRLGITYSIVCASPEYVKTFGMAHKPADLLNHACLRLVSPVFPLDKWLFDGPEGQEMVTINSSPLLVNSADAMKTAISSGMGIGILPIYSAIEGLRNGTLVRVLSDYRSQELNLYAIYPSRQYLDAKIRTWVEYLRGSLPEILAADEADLHVQALKASC | not soluble
8 | MFFTDESGIHHDPSKVRRLGLYNVPVDYPSRKLNVLASIPLFDGVPCFMFTYSNVNSEIFAEFLRLFRNSGPIVLILDNAKFHKNAYVFSVASQLGITLLFLPPYSPDLNPIELVWKDLKRWVNTYYNLEYTLDSMEEEFYYLFLRECSQTVMKFKKRL | soluble
9 | MEYYFTAQKLAVGYDNRPLIENIDFSLKRGEILTLIGPNGAGKSTILKSIARQLSLVSGTIYLDKSDVVTMNGNEFAKKMAVVLTDKLKTELMTCYDVVATGRYPYTGRFGVLSDEDKKAVDEAMELVNVSQIKDKDFTKISDGQRQRVMLSRAICQQPEIIVLDEPTSYLDIKYKLEFLSILQRLKRQKNLTVIMSLHELDMAKRVSDHILCIDGRYVDRYGTPEEVFTDQYVSGLFGITAGSLEHHHHHH | not soluble
10 | MHAVKPFPLCNLPLISLREVIDYLPTFDIFVLLHTSQKTKKLISSNIRDFVARQEHYKKQDISVRVVAERSYMEVIAISPKIRSTRFKRNDINQALEAAKYLVDHFKCDTDSVWLRITHRKEDETRQIITSVKEINLNITNLQFRHERISSDLFNWLLENCVQDVHIWVLEPQSITVSNWNVFEKVRKYNFQGINFSSHQANMLLKSLKSNNNFVQFRANDIENSLDLSVVFEDTGATAKMDTYRSVVFRPGLTVLKEYKPSKSRFVTENNNGGEMSICITEHAFSFQSN | not soluble
11 | MYIILVYDIGEKRVGKMLKLCRKYLNWIQNSVFEGEISEVKLLELKSRAAGIMEKEEDSLIIFSSRQERWLEKEIIGKERSATDIFL | not soluble
12 | MGSDKIHHHHHHMLITNVRPWGGDNVDLEVHEGRIAAVHPAGTGDVSADAAGGTIDGRGRIAFPAFTDVHVHLDSTRIGLPFREHTASPGVWNMMCNDRENWRDTPIPYADVVAGTLERMIARGTTRVRSYAQIDVDCKLERFEAVLAAKERFAHAAEVEVMAFPQAGLLLEDGTVPLLEEALRAGATTIGGIDPCQLDRDPARHLDIVFELAEKYGVDVDIHLHEPGHLGVFSAELIFERTRALGMQGRVSLSHAYDLANVHPDVTARIVEQMAELDVAWATVAPASGGAQFDLARMTEAGIRVGLGEDGQRDYWSPYGNCDMLDRTWQLAFTHRLRKDRLIEHCAAIATVGGASIMDRTVPRLTSPDDRPGLTPGDRADVVLVDGETVTSTVMDRGTDRTVIHDGRLVADGLAVLPRAAG | not soluble
